This is an account of results in patent publication US12715909 (ENTHERA S R L, dated 2026).

Numbering of substitutions follows the chain as printed.

The target of experiment [1] is T1, human IGFBP5 (human, UniProt P24593 21-272).
T1 construct: Bought protein; in BLI it was in solution; also called hIGFBP-5
In words: ELISA, scFv, secondary screening. As to the method:
(§1) At the end of the discovery process, each selection output was screened for antigen-specific antibodies and the binding characteristics of monoclonal antibody clones was analysed. For this purpose, 3072 single colonies were used for scFv antibody production. […] 192 of those ELISA positive clones were selected for a secondary screening. For that purpose, a second batch of scFv were produced and tested on a broader panel of antigens: Streptavidin+biotinylated human IGFBP5, Streptavidin+biotinylated murine IGFBP5, Streptavidin, BSA, Human IGFBP1, Human IGFBP2, Human IGFBP3, Human IGFBP4, Human IGFBP5 and Human IGFBP6. […] Binding to human IGFBP1, human IGFBP2, human IGFBP3, human IGFBP4 and human IGFBP6 was not detected. […] The scFv DNA sequence was amplified by PCR and cloned into YUMAB's mammalian scFv-Fc expression vector, resulting in a genetic fusion of the scFv with a human IgG4 Fc. Bacterial clones with a correctly cloned scFv gene were used for isolation of transfection grade DNA. The DNA was used for the transient transfection of HEK cells which produced and secreted the antibody into the culture medium. The antibodies were purified by affinity chromatography (Protein A) and re-buffered in PBS. The protein concentration was determined by UV/VIS spectrometry and purity was checked by Coomassie staining. 13 of the 15 antibodies could be successfully produced in the scFv-Fc format.

Experiment [2] addresses T2, mouse IGFBP5 (mouse, UniProt Q07079 20-271).
T2 construct: Bought protein; in solution in BLI; also called mIGFBP-5; murine IGFBP5
Nature of the experiment: ELISA, scFv, secondary screening. How it is done: as §1

A further experiment concerns the target T3, human IGFBP1 (human, UniProt P08833 26-259).
T3 construct: Bought protein
T3 sequence (looked up): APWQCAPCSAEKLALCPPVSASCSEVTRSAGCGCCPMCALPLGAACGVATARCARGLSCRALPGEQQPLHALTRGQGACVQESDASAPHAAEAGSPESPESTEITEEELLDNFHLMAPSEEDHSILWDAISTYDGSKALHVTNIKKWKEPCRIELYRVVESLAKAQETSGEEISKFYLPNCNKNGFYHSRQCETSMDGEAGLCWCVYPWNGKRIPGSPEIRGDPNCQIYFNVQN
Nature of the experiment: ELISA, scFv, secondary screening. As to the method: as §1

The target of the next experiment is T4, human IGFBP2 (human, UniProt P18065 37-325, limits assumed).
T4 construct: Bought protein
T4 sequence (looked up): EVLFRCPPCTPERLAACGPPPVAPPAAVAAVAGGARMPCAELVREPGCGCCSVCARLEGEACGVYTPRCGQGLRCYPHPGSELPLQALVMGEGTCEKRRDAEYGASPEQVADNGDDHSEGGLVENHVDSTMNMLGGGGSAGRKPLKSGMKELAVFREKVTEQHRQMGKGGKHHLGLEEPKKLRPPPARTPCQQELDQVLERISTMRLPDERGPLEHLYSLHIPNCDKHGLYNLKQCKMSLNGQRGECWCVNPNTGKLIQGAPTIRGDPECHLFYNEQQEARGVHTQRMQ
In words: ELISA, scFv, secondary screening. How it is done:
as §1

A further experiment addresses T5, human IGFBP3 (human, UniProt P17936 28-291).
T5 construct: Bought protein
Nature of the experiment: ELISA, scFv, secondary screening. How it is done: as §1

A further experiment concerns the target T6, human IGFBP4 (human, UniProt P22692 22-258).
T6 construct: Bought protein
T6 sequence (looked up): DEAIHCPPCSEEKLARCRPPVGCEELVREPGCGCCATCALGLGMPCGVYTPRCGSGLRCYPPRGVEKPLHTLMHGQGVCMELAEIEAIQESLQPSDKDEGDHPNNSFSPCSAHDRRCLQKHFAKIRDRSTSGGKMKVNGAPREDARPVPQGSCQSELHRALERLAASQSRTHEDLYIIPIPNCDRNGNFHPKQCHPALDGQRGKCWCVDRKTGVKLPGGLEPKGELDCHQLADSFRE
In words: ELISA, scFv, secondary screening. As to the method:
as §1

The target of another experiment is T7, human IGFBP6 (human, UniProt P24592 28-240, limits assumed).
T7 construct: Bought protein
T7 sequence (looked up): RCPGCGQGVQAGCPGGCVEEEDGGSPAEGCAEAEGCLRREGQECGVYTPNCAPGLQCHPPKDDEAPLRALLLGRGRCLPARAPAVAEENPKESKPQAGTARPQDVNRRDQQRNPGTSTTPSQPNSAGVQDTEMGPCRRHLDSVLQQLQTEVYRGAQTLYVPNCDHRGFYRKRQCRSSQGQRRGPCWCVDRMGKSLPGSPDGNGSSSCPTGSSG
Nature of the experiment: ELISA, scFv, secondary screening. How it is done:
as §1

Experiment [3] addresses T1, human IGFBP5. In words: BLI (Octet/BLItz), mAb captured via Fc on AHC biosensor, antigen in solution. How it is done:
(§2) To assess the binding affinity in more detail, affinity measurements were performed using Biomolecular Interaction Analysis performed by an Octet platform (BLItz System), which is a Biolayer Interferometry (BLI) platform. To establish the assay, the target monoclonal antibody (mAb, 2 identical antigen binding moieties, 2 μg/ml in 1% BSA containing 0.05% Tween 20) was immobilized via Fc on the via AHC biosensor and the interaction with the antigen human IGFBP5 (R&D, cat n° 875-B5) and mouse IGFBP5 (R&D, cat n° 578-B5) at different concentration were measured.

Experiment [4] addresses T2, mouse IGFBP5. The description is as above. How it is done:
as §2

T1 sequence (P24593 21-272 limits assumed): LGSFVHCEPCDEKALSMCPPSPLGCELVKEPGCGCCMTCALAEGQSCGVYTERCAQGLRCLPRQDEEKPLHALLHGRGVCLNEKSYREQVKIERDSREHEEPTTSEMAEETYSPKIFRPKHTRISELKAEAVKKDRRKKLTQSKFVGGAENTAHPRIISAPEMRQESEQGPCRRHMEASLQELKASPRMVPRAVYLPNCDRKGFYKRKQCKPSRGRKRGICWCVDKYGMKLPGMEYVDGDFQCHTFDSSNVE
T2 sequence (Q07079 20-271 limits assumed): as the sequence (P24593 21-272 limits assumed) above, with R87G, V90T, I116V, I157V, S159P, L183F, T245A counted along it
T5 sequence (P17936 28-291 limits assumed): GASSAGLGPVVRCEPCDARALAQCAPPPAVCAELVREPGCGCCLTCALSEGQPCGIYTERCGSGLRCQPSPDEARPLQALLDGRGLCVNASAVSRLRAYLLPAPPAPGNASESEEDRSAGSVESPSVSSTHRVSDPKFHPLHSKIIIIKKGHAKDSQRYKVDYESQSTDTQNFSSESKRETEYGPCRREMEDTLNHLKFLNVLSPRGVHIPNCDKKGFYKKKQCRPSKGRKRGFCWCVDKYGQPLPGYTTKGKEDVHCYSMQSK

B1: E05 scFv (scFv, V domains shown)
VH: EVQLVESGGGLVQPGGSLKLSCAASGFTFSGYGMNWVRQAPGKGLEWVSYVGSSSSTIYYADSVKGRFTISRDNANNSLYLQMNSLRAEDTAVYYCARGLGGNWGQGTMVTVSS
VL: QPGLTQPPSASGAPGQRVTISCSGSRSNIGSNYVHWYQQLPGTAPKLIIYRNDQRPSGVPARFSASKSGTSASLAISGLRSEDEADYYCAAWDDGLSVLFGGGTKLTVL
notes: scFv as screened by ELISA
Regarding B1, the binding result with human IGFBP5 [1] is given as “binds”; with mouse IGFBP5 [2], “binds”; with human IGFBP1, “no binding”; in the experiment with human IGFBP2 it was “no binding”; with human IGFBP3, “no binding”; in the experiment with human IGFBP4, “no binding”. For the same molecule, the binding result with human IGFBP6 was “no binding”.

B2: F04 scFv (scFv, V domains shown)
VH: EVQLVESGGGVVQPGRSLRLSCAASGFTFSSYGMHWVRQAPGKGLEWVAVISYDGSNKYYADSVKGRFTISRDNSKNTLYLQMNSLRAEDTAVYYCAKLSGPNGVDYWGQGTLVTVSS
VL: SSELTQDPSVSVALGQTVTITCQGDSVRKYYTNWYQQKPGQAPILVLYGKNYRPSGIPDRFSGSTSGDTAYLTITGAQAEDAADYYCHSRDTSDIHLNVFGTGTKVTVL
notes: scFv as screened by ELISA
As for B2, the binding result is on record as “binds” with human IGFBP5 [1]; “binds” with mouse IGFBP5 [2]; “no binding” with human IGFBP1; “no binding” with human IGFBP2; “no binding” in the experiment with human IGFBP3; “no binding” with human IGFBP4. For the same molecule, the binding result with human IGFBP6 is “no binding”.

B3: D12 scFv (scFv, V domains shown)
VH: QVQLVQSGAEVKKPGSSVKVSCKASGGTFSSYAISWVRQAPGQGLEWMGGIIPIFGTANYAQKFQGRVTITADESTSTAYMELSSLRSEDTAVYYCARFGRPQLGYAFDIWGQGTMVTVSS
VL: ETTLTQSPGTLSVSPGDRATLSCRASQSLSADYLAWYQQKPGQAPRLLIYGASTRATGIPARFSGSGSGTEFTLTVSSLQSEDFAVYYCQQNDNWPYTFGQGTKLEIK
notes: scFv as screened by ELISA
As for B3, the binding result was “binds” with human IGFBP5 [1]; “binds” in the experiment with mouse IGFBP5 [2]; “no binding” with human IGFBP1; “no binding” with human IGFBP2; “no binding” with human IGFBP3; “no binding” in the experiment with human IGFBP4. In addition, in the experiment with human IGFBP6, the binding result is “no binding”.

B4: G01 scFv (scFv, V domains shown)
VH: QVQLVQSGAEVKKPGSSVKVSCKASGGTFSSYAISWVRQAPGQGLEWMGGIIPIFGTANYAQKFQGRVTITADESTSTAYMELSSLRSEDTAVYYCASITEGAFDYWGQGTLVTVSS
VL: AIQLTQSPSTLSASVGDRVTITCRASRTVGSWLAWYQQKPGKAPKLLIYDASNLQSGVPSRFSGSGSGTEFTLTISSLQPDDLSTYYCQQYNSSPYTFGQGTKVEIK
notes: scFv as screened by ELISA
For B4, the binding result is given as “binds” in the experiment with human IGFBP5 [1]; “binds” with mouse IGFBP5 [2]; “no binding” with human IGFBP1; “no binding” with human IGFBP2; “no binding” with human IGFBP3; “no binding” with human IGFBP4. Also, the binding result in the experiment with human IGFBP6 is recorded as “no binding”.

B5: C12 scFv (scFv, V domains shown)
VH: QVQLVQSGAEVKKPGSSVKVSCKASGGTFSSYAISWVRQAPGQGLEWMGGIIPIFGTANYAQKFQGRVTITADESTSTAYMELSSLRSEDTAVYYCATLGRELSFDYWGQGTLVTVSS
VL: DIVMTQSPSSLSASVGDRVTITCRASQSISSYLNWYQQKPGKAPKLLIYAASSLQSGVPSRFSGSGSGTDFTLTISSLQPEDFATYYCQQSYSESWTFGQGTTVDIK
notes: scFv as screened by ELISA
For the molecule B5, the binding result with human IGFBP5 [1] is on record as “binds”; in the experiment with mouse IGFBP5 [2], “binds”; with human IGFBP1, “no binding”; in the experiment with human IGFBP2, “no binding”; with human IGFBP3 it was “no binding”; with human IGFBP4, “no binding”. Further, the binding result with human IGFBP6 is reported as “no binding”.

B6: E02 scFv (scFv, V domains shown)
VH: QMQLVQSGAEVKKPGSSVKVSCKASGGTFSSYAISWVRQAPGQGLEWMGGIIPIFGTANYAQKFQGRVTITADESTSTAYMELSSLRSEDTAVYYCATMSVAGPSISFDYWGQGTLVTVSS
VL: B5 VL with V3Q, T20A, T22P, S56R, Q90E, S91T, E94N, S95L, T103K, D105E
notes: scFv as screened by ELISA
On to B6, for which the binding result is “binds” in the experiment with human IGFBP5 [1]; “binds” in the experiment with mouse IGFBP5 [2]; “no binding” with human IGFBP1; “no binding” with human IGFBP2; “no binding” in the experiment with human IGFBP3; “no binding” with human IGFBP4. Also, in the experiment with human IGFBP6, the binding result is listed as “no binding”.

B7: E03 scFv (scFv, V domains shown)
VH: QVQLVQSGAEVKKPGSSVKVSCKASGGTFSSYAISWVRQAPGQGLEWMGGITPIFGTANYAQKFQGRVTITADESTSTAYMELSSLRSEDTAVYYCARAGILTGYYFDYWGQGTLVTVSS
VL: NFMLTQPHSVSESPGKTVTISCTRSSGSIASNYVQWYQQRPGSSPTTVIYEDNQRPSGVPDRFSGSIDSSSNSASLTISGLKTEDEADYYCQSYDSSNRPWVFGGGTKLTVL
notes: scFv as screened by ELISA
Consider B7, for which the binding result is on record as “binds” in the experiment with human IGFBP5 [1]; “binds” with mouse IGFBP5 [2]; “no binding” with human IGFBP1; “no binding” with human IGFBP2; “no binding” with human IGFBP3; “no binding” in the experiment with human IGFBP4. For the same molecule, the binding result in the experiment with human IGFBP6 is given as “no binding”.

B8: A09 scFv (scFv, V domains shown)
VH: QVQLVESGAEVKKPGASVKVSCKASGYTFTSYGISWVRQAPGQGLEWMGWISAYNGNTNYAQKLQGRVTMTTDTSTSTAYMELRSLRSDDTAVYYCAREWELLGGLDYWGQGTLVTVSS
VL: QSALTQPASVSGSPGQSITISCTGTSSDVGGYNYVSWYQQHPGKAPKLMIYEVSNRPSGVSNRFSGSKSGNTASLTISGLQAEDEADYYCSSYTSSSTVVFGGGTKLTVL
On to B8, for which the binding result is on record as “binds” with human IGFBP5 [1]; “binds” with mouse IGFBP5 [2]; “no binding” in the experiment with human IGFBP1; “no binding” with human IGFBP2; “no binding” in the experiment with human IGFBP3; “no binding” with human IGFBP4. Moreover, the binding result in the experiment with human IGFBP6 is recorded as “no binding”.

B9: B09 full length mAb (antibody, V domains shown)
VH: B8 VH with E6Q, E99D, W100L, E101A, L102V, L103G, G104T, G105H, L106G
VL: QSALTQPASVSGSPGQSITISCTGTSSDVGGYNYVSWYQQHPGKAPKLMIYEVSNRPSGVSNRFSGSKSGNTASLTISGLQAEDEADYYCSSYTSSSTLEVVFGGGTKLTVL
notes: also called anti-IGFBP5 mAb B09
In the case of B9, the Kd with human IGFBP5 [3] and in the experiment with mouse IGFBP5 [4] was 0.1 nM in each case.
